Numbering of substitutions follows the chain as printed. Names may count otherwise.
B1: R222Q/K374E: ADA2 combination variant SEQ ID NO:263 (protein)
chain: IDETRAHLLLKEKMMRLGGRLVLNTKEELANERLMTLKIAEMKEAMRTLIFPPSMHFFQAKHLIERSQVFNILRMMPKGAALHLHDIGIVTMDWLVRNVTYRPHCHICFTPRGIMQFRFAHPTPRPSEKCSKWILLEDYRKRVQNVTEFDDSLLRNFTLVTQHPEVIYTNQNVVWSKFETIFFTISGLIHYAPVFRDYVFRSMQEFYEDNVLYMEIRAQLLPVYELSGEHHDEEWSVKTYQEVAQKFVETHPEFIGIKIIYSDHRSKDVAVIAESIRMAMGLRIKFPTVVAGFDLVGHEDTGHSLHDYKEALMIPAKDGVKLPYFFHAGETDWQGTSIDRNILDALMLNTTRIGHGFALSKHPAVRTYSWEKDIPIEVCPISNQVLKLVSDLRNHPVATLMATGHPMVISSDDPAMFGAKGLSYDFYEVFMGIGGMKADLRTLKQLAMNSIKYSTLLESEKNTFMEIWKKRWDKFIADVATK
modifications: human ADA2 R219Q/K371E, mature numbering
B2: R222Q/K374D: ADA2 combination variant SEQ ID NO:264 (protein)
chain: B1 chain with E371D
modifications: human ADA2 R219Q/K371D, mature numbering
B3: L224G: ADA2 variant SEQ ID NO:44 (protein)
chain: B1 chain with Q219R, L221G, E371K
modifications: human ADA2 L221G, mature numbering
B4: S265A: ADA2 variant SEQ ID NO:51 (protein)
chain: B1 chain with Q219R, S262A, E371K
modifications: human ADA2 S262A, mature numbering
B5: E182T: ADA2 variant SEQ ID NO:48 (protein)
chain: B1 chain with E179T, Q219R, E371K
modifications: human ADA2 E179T, mature numbering
B6: E182D: ADA2 variant SEQ ID NO:45 (protein)
chain: B1 chain with E179D, Q219R, E371K
modifications: human ADA2 E179D, mature numbering
B7: E182V: ADA2 variant SEQ ID NO:49 (protein)
chain: B1 chain with E179V, Q219R, E371K
modifications: human ADA2 E179V, mature numbering
B8: E182S: ADA2 variant SEQ ID NO:47 (protein)
chain: B1 chain with E179S, Q219R, E371K
modifications: human ADA2 E179S, mature numbering
B9: H267A: ADA2 variant SEQ ID NO:34 (protein)
chain: B1 chain with Q219R, H264A, E371K
modifications: human ADA2 H264A, mature numbering
B10: S265V: ADA2 variant SEQ ID NO:52 (protein)
chain: B1 chain with Q219R, S262V, E371K
modifications: human ADA2 S262V, mature numbering
B11: E182G: ADA2 variant SEQ ID NO:50 (protein)
chain: B1 chain with E179G, Q219R, E371K
modifications: human ADA2 E179G, mature numbering
B12: H267Q: ADA2 variant SEQ ID NO:35 (protein)
chain: B1 chain with Q219R, H264Q, E371K
modifications: human ADA2 H264Q, mature numbering
B13: S265M: ADA2 variant SEQ ID NO:53 (protein)
chain: B1 chain with Q219R, S262M, E371K
modifications: human ADA2 S262M, mature numbering
B14: E182A: ADA2 variant SEQ ID NO:46 (protein)
chain: B1 chain with E179A, Q219R, E371K
modifications: human ADA2 E179A, mature numbering

experiment: Kinetic assessment of adenosine deaminase activity (ammonia assay, Michaelis-Menten); type: biochemical; conditions: pH 6.5; [E] = 8.5 nM
Protocol: Adenosine deaminase activity was determined by the measurement of ammonia released from adenosine when broken down to inosine. Ammonia was measured using a commercially available Ammonia Assay kit (Cat. No. AA0100, Sigma-Aldrich, St. Louis, Mo.). The kit contains dry reagents containing α-ketoglutaric acid and NADPH, which were reconstituted with 5 mL water prior to use in the assay. Ammonia reacts with α-ketogluaric acid (KGA) and reduced nicotinamide adenine dinucleotide phosphate (NADPH) in the presence of L-glutamate dehydrogenase (GDH).
Kinetics parameters of rHuADA2 WT and variants were compared using this assay at different adenosine concentrations at pH 7.6 and 6.5. Adenosine concentrations ranging from 20 μM to 20 mM were used. Sub-molar concentration of adenosine stock was prepared in 1N NaOH.
For the enzymatic assays at pH 7.6, adenosine was serially diluted with 100 mM sodium acetate (NaOAc), pH 4.9. A 2× reaction mixture was prepared, containing reconstituted ammonia assay reagent (containing about 4 mM α-ketoglutarate and about 300 μM NADPH), WT rHuADA2 or variants at 1 μg/mL (17 nM) and glutamate dehydrogenase (GDH, 1:50 dilution). 85 μL of adenosine was added to 85 μL 2× mixture in duplicate in a UV-transparent half-area plate. The change in absorbance (ΔA) at 340 nm over time at room temperature was monitored.
For the enzymatic assay at pH 6.5, adenosine was serially diluted with 200 mM piperazine-N,N′-bis(2-ethanesulfonic acid) (PIPES), pH 6.5. A 2× reaction mixture in 200 mM PIPES, pH 6.5 was prepared, containing 4 mM α-ketoglutarate, 300 μM NADPH, 1 μg/mL (17 nM) rHuADA2 or variants and 50 U/mL GDH (Cat No. G2626, Sigma-Aldrich). The enzymatic reaction was initiated by adding equal volume of adenosine to the 2× mixture in a UV-transparent half-area plate as described above, and the change in absorbance (AA) at 340 nm over time at room temperature was monitored.
Adenosine deaminase activity in mU/mL (μM/min equivalent) was calculated using the following formula: 1 mU/mL=−(−ΔA/min×Tv)/(Sv×ϵ×1) • where Tv=total volume (170 μL), Sv=sample volume (85 μL), ϵ=6.22×10^−3 μM^−1 cm^−1, 1=1 cm.
The activity data were fitted with non-linear regression of Michaelis-Menten equation using Graphpad Prism software to obtain Km and Vmax. Other kinetics parameters such as kcat and kcat/Km were also determined.

Molecule	Km [µM]	Vmax [µM/min]
B1	990	58.56
B2	790	60.87

same assay, conditions: pH 6.5; [E] = 8.5 nM; kcat=Vmax/0.0085/60

Molecule	kcat [s⁻¹]
B1	114.82
B2	119.35

same assay, conditions: pH 7.6; [E] = 8.5 nM

Molecule	Km [µM]	Vmax [µM/min]
B1	1580	87.27
B2	1710	77.01

same assay, conditions: pH 7.6; [E] = 8.5 nM; kcat=Vmax/0.0085/60

Molecule	kcat [s⁻¹]
B1	171.12
B2	151.00

experiment: Adenosine deaminase (ADA) enzymatic activity assay kit; type: biochemical; conditions: purified protein at 5 μg/mL
Protocol: Adenosine deaminase activity was determined using an adenosine deaminase (ADA) assay kit (Genway, San Diego, Calif.; Cat. No. BQ014EALD) with minor modifications. The ADA assay is based on the enzymatic deamination of adenosine to inosine, which is converted to hypoxanthine by purine nucleoside phosphorylase (PNP). Hypoxanthine is then converted to uric acid and hydrogen peroxide by xanthine oxidase (XOD). Hydrogen peroxide is further reacted with N-Ethyl-N-(2-hydroxy-3-sulfopropyl)-3-methylaniline (EHSPT) and 4-aminoantipyrine (4-AA) in the presence of peroxidase (POD) to generate quinone dye, which is monitored in a kinetic manner.
Briefly, 5 μL samples in duplicates (at appropriate dilutions to measure steady-state, non-saturating enzyme activity) were added to 120 μL R1 reagent (provided by the manufacturer; 50 mM Tris HCL, pH 8.0, 2 mM 4-AA, 0.1 U/mL PNP, 0.2 U/mL XOD, 0.6 U/mL peroxidase) in a 96 well plate, according to manufacturer's instructions. The mixtures were incubated at 37° C. for approximately 5 min and 60 μL of R2 reagent (provided by the manufacturer; 50 mM Tris HCl, pH 4.0, 10 mM Adenosine, 2 mM EHSPT) was added to the mixtures. Then, change in absorbance (AA) at 556 nm over time at 37° C. was measured. One unit of ADA is the amount of ADA that generates one μmole of inosine from adenosine per minute at 37° C. Adenosine deaminase activity in mU/mL was calculated using the following formula: 1 mU/mL=(ΔA/min×Tv)/(Sv×ϵ×1) • where Tv=total volume (185 μL), Sv=sample volume (5 μL), ϵ=32.2×10^−3 μM^−1 cm^−1, 1=0.5 cm.
Adenosine deaminase activity of WT rHuADA2 and variants tested above were determined using the adenosine deaminase activity (ADA) assay described in Example 4. Activity was assessed on purified rHuADA2 WT and variants that were diluted to 5 μg/mL, and then serially diluted 2 fold to generate 4 measurements.
Adenosine deaminase activity of PEGylated rHuADA2 and variants was assessed using the method described in Example 4, and compared to the activity of the corresponding non-PEGylated form.
Selected candidate variants described in Table 8 above, containing an amino acid substitution in a residue that play a role in enzymatic activity, were assessed for their adenosine deaminase activity using the method described in Example 4. To perform the experiments, purified WT rHuADA2 and tested variants were prepared at 5 μg/mL concentration to normalize the amount of protein in each experiment.

Molecule	Adenosine deaminase activity mU/ml [mU/ml]	Adenosine deaminase activity ΔA/min
B3	88.2	38.3 ΔA/min
B4	47.1	20.5 ΔA/min
B5	6.2	2.7 ΔA/min
B6	18.1	7.8 ΔA/min
B7	8	3.5 ΔA/min
B8	9.5	4.1 ΔA/min
B9	70.9	30.8 ΔA/min
B10	66.1	28.8 ΔA/min
B11	6.9	3 ΔA/min
B12	89.3	38.8 ΔA/min
B13	81.6	35.5 ΔA/min
B14	8.6	3.7 ΔA/min

same assay, conditions: purified protein at 5 μg/mL; compared to WT-ADA2

Molecule	% of WT activity [%]
B3	113
B4	60
B5	8
B6	23
B7	10
B8	12
B9	91
B10	85
B11	9
B12	114
B13	105
B14	11
